Experimental data: paper PMC9482650, “Quantitative fragmentomics allow affinity mapping of interactomes” (Nature Communications, 2022)
Each block holds one binder with its values, some of them ahead of it.

Experiments:
Assay in all cases: holdup assay
Set-up in all cases: key: below the threshold = too weak to quantify, mostly under pKd 3.1 to 4
Inadl_3, Q8NI35 = biological target: Inadl_3, Q8NI35
DFNB31_2, Q9P202 = biological target: T1, DFNB31_2, Q9P202
T1 sequence (Q9P202 274-371, limits assumed, looked up): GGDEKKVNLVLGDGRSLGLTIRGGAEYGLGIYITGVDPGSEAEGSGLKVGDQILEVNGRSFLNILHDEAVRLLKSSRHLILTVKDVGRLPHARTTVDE

DFNB31_3, Q9P202 = biological target: T2, DFNB31_3, Q9P202
T2 sequence (Q9P202 811-907, limits assumed, looked up): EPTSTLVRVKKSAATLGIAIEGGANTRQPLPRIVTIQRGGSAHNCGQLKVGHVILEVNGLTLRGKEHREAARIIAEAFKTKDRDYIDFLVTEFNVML

MPDZ_5, O75970 = biological target: T3, MPDZ_5, O75970
T3 sequence (O75970 695-796, limits assumed, looked up): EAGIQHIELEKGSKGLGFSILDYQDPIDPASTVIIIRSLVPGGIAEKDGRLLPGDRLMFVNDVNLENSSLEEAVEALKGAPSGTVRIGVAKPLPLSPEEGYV

FRMPD3, Q5JV73 = biological target: FRMPD3, Q5JV73
DLG3_2, Q92796 = biological target: T4, DLG3_2, Q92796
T4 sequence (Q92796 221-321, limits assumed, looked up): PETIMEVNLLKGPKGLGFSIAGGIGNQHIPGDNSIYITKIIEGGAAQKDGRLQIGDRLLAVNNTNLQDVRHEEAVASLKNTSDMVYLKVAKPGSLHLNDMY

GRIP2_6, Q9C0E4 = biological target: GRIP2_6, Q9C0E4
SNTA1, Q13424 = biological target: T5, SNTA1, Q13424
T5 sequence (Q13424 82-180, limits assumed, looked up): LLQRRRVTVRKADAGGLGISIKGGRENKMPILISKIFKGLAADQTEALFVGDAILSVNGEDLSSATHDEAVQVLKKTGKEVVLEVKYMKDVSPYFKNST

MAGI2_2, Q86UL8 = biological target: MAGI2_2, Q86UL8
MAGI3_2, Q5TCQ9 = biological target: MAGI3_2, Q5TCQ9
Inadl_4, Q8NI35 = biological target: Inadl_4, Q8NI35
MPDZ_12, O75970 = biological target: T6, MPDZ_12, O75970
T6 sequence (O75970 1857-1958, limits assumed, looked up): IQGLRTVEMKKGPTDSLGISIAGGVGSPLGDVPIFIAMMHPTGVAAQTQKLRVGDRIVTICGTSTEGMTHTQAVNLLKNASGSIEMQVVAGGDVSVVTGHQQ

TJP1_2, Q07157 = biological target: TJP1_2, Q07157
HTRA1, Q92743 = biological target: HTRA1, Q92743
MPDZ_10, O75970 = biological target: T7, MPDZ_10, O75970
T7 sequence (O75970 1624-1722, limits assumed, looked up): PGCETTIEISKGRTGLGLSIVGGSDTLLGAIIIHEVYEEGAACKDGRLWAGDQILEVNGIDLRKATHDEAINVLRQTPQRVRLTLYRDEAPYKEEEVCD

PDZRN3_1, Q9UPQ7 = biological target: T8, PDZRN3_1, Q9UPQ7
T8 sequence (Q9UPQ7 244-349, limits assumed, looked up): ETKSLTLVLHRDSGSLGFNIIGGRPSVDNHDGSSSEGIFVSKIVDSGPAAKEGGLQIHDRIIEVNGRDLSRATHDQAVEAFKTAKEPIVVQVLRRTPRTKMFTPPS

ARHGAP21, Q5T5U3 = biological target: T9, ARHGAP21, Q5T5U3
T9 sequence (Q5T5U3 45-169, limits assumed, looked up): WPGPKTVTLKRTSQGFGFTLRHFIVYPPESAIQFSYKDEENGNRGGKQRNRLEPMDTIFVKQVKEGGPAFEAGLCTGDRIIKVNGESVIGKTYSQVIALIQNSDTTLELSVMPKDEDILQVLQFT

GRIP1_4, Q9Y3R0 = biological target: T10, GRIP1_4, Q9Y3R0
T10 sequence (Q9Y3R0 467-571, limits assumed, looked up): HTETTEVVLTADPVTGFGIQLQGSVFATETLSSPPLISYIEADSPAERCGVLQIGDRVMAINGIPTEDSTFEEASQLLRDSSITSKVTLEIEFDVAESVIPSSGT

PDLIM1, O00151 = biological target: PDLIM1, O00151
PDZD2_2, O15018 = biological target: T11, PDZD2_2, O15018
T11 sequence (O15018 329-429, limits assumed, looked up): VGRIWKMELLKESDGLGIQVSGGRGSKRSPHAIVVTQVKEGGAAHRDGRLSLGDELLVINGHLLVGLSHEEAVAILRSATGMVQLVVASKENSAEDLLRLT

TX1BP3, O14907 = biological target: T12, TX1BP3, O14907
T12 sequence (O14907 10-122, limits assumed, looked up): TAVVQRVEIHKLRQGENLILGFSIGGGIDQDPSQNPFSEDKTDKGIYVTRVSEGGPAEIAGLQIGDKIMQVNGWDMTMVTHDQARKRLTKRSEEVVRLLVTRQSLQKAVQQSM

IL16_1, Q14005 = biological target: IL16_1, Q14005
MPP7, Q5T2T1 = biological target: T13, MPP7, Q5T2T1
T13 sequence (Q5T2T1 134-230, limits assumed, looked up): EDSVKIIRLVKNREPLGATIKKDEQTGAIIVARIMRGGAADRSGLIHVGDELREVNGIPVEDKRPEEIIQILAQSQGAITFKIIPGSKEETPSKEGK

LIMK2, P53671 = biological target: LIMK2, P53671
[1] = plain residues with an end cap or a label only (N-terminal biotin on a linker: ahx)
[2] = plain residues with an end cap or a label only (N-terminal biotin on a linker: ado-ado)

Chain of Inadl_4, Q8NI35 (Q8NI35 547-651): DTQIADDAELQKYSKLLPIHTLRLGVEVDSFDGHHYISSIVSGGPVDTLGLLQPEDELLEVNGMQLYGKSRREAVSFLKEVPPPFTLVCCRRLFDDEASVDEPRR
Chain of FRMPD3, Q5JV73 (Q5JV73 12-100): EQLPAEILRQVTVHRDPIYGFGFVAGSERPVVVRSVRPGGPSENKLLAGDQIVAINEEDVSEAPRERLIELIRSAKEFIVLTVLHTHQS
Chain of HTRA1, Q92743 (Q92743 360-477): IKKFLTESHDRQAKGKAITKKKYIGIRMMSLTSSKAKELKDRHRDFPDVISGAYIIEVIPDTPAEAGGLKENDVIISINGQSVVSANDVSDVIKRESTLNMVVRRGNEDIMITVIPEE
Chain of GRIP2_6, Q9C0E4 (Q9C0E4 648-740): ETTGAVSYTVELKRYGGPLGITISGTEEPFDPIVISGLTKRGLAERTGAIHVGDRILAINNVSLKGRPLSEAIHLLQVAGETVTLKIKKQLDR
Chain of IL16_1, Q14005 (Q14005 210-306): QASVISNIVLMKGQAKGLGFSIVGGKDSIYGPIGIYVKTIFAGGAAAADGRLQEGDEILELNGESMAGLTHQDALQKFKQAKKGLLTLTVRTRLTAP
Chain of Inadl_3, Q8NI35 (Q8NI35 359-469): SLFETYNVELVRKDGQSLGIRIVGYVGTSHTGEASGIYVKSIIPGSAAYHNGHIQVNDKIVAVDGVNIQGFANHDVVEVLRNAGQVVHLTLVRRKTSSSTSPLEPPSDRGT
Chain of LIMK2, P53671 (P53671 143-248): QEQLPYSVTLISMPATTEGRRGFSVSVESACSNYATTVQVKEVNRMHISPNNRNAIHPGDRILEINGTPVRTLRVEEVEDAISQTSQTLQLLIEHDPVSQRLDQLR
Chain of MAGI2_2, Q86UL8 (Q86UL8 410-522): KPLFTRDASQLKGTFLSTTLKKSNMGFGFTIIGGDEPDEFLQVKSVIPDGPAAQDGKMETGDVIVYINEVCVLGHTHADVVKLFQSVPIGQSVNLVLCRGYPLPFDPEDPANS
Chain of TJP1_2, Q07157 (Q07157 181-274): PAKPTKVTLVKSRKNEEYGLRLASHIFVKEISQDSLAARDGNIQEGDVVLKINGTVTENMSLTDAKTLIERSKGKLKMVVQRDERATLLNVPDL
Chain of PDLIM1, O00151 (O00151 1-87): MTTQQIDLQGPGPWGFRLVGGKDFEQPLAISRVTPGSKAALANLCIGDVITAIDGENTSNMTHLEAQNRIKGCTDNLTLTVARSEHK
Chain of MAGI3_2, Q5TCQ9 (Q5TCQ9 398-503): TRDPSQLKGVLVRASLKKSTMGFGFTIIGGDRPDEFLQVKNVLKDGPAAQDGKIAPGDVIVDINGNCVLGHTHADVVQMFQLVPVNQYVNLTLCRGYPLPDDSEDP

pKd (Inadl_3, Q8NI35; [1]): below the threshold
pKd (DFNB31_2, Q9P202; [1]): below the threshold
pKd (DFNB31_3, Q9P202; [1]): below the threshold
pKd (MPDZ_5, O75970; [1]): below the threshold
pKd (FRMPD3, Q5JV73; [1]): below the threshold
pKd (DLG3_2, Q92796; [1]): 4.04
pKd (GRIP2_6, Q9C0E4; [1]): below the threshold
pKd (SNTA1, Q13424; [1]): below the threshold
pKd (MAGI2_2, Q86UL8; [1]): 4.39
pKd (MAGI3_2, Q5TCQ9; [1]): 4.53
pKd (Inadl_4, Q8NI35; [1]): below the threshold
pKd (MPDZ_12, O75970; [1]): below the threshold
pKd (TJP1_2, Q07157; [1]): below the threshold
pKd (HTRA1, Q92743; [1]): below the threshold
pKd (MPDZ_10, O75970; [1]): 3.97
pKd (PDZRN3_1, Q9UPQ7; [1]): below the threshold
pKd (ARHGAP21, Q5T5U3; [1]): below the threshold
pKd (GRIP1_4, Q9Y3R0; [1]): below the threshold
pKd (PDLIM1, O00151; [1]): below the threshold
pKd (PDZD2_2, O15018; [1]): 4.71
pKd (TX1BP3, O14907; [1]): 6.05
pKd (IL16_1, Q14005; [1]): 3.95
pKd (MPP7, Q5T2T1; [1]): below the threshold
pKd (LIMK2, P53671; [1]): below the threshold
Binder: QPRTWLQSPV [RTKN, Q9BST9]

pKd (Inadl_3, Q8NI35; [2]): 4.08
pKd (DFNB31_2, Q9P202; [2]): below the threshold
pKd (DFNB31_3, Q9P202; [2]): 3.88
pKd (MPDZ_5, O75970; [2]): below the threshold
pKd (FRMPD3, Q5JV73; [2]): below the threshold
pKd (DLG3_2, Q92796; [2]): 4.72
pKd (GRIP2_6, Q9C0E4; [2]): below the threshold
pKd (SNTA1, Q13424; [2]): 4.46
pKd (MAGI2_2, Q86UL8; [2]): 4.24
pKd (MAGI3_2, Q5TCQ9; [2]): 4.84
pKd (Inadl_4, Q8NI35; [2]): below the threshold
pKd (MPDZ_12, O75970; [2]): below the threshold
pKd (TJP1_2, Q07157; [2]): below the threshold
pKd (HTRA1, Q92743; [2]): 4.41
pKd (MPDZ_10, O75970; [2]): below the threshold
pKd (PDZRN3_1, Q9UPQ7; [2]): 3.96
pKd (ARHGAP21, Q5T5U3; [2]): below the threshold
pKd (GRIP1_4, Q9Y3R0; [2]): below the threshold
pKd (PDLIM1, O00151; [2]): below the threshold
pKd (PDZD2_2, O15018; [2]): 5.16
pKd (TX1BP3, O14907; [2]): 4.03
pKd (IL16_1, Q14005; [2]): 4.53
pKd (MPP7, Q5T2T1; [2]): below the threshold
pKd (LIMK2, P53671; [2]): below the threshold
Binder: DPAESMESLV [PTPRG, P23470]

pKd (Inadl_3, Q8NI35; [2]): below the threshold
pKd (DFNB31_2, Q9P202; [2]): below the threshold
pKd (DFNB31_3, Q9P202; [2]): below the threshold
pKd (MPDZ_5, O75970; [2]): below the threshold
pKd (FRMPD3, Q5JV73; [2]): below the threshold
pKd (DLG3_2, Q92796; [2]): 4.35
pKd (GRIP2_6, Q9C0E4; [2]): below the threshold
pKd (SNTA1, Q13424; [2]): below the threshold
pKd (MAGI2_2, Q86UL8; [2]): 4.74
pKd (MAGI3_2, Q5TCQ9; [2]): 4.9
pKd (Inadl_4, Q8NI35; [2]): below the threshold
pKd (MPDZ_12, O75970; [2]): below the threshold
pKd (TJP1_2, Q07157; [2]): below the threshold
pKd (HTRA1, Q92743; [2]): below the threshold
pKd (MPDZ_10, O75970; [2]): below the threshold
pKd (PDZRN3_1, Q9UPQ7; [2]): 4.43
pKd (ARHGAP21, Q5T5U3; [2]): below the threshold
pKd (GRIP1_4, Q9Y3R0; [2]): below the threshold
pKd (PDLIM1, O00151; [2]): below the threshold
pKd (PDZD2_2, O15018; [2]): 4.36
pKd (TX1BP3, O14907; [2]): 4.82
pKd (IL16_1, Q14005; [2]): 3.55
pKd (MPP7, Q5T2T1; [2]): below the threshold
pKd (LIMK2, P53671; [2]): below the threshold
Binder: NISYRRESAI [KCNJ4, P48050]
